Measured values as given in patent US20170260249A1 (IMMATICS BIOTECHNOLOGIES, published 2017).

B1: ILLELFTHV (SEQ ID NO: 25) (peptide)
peptide: ILLELFTHV
notes: synthetic peptide; source genes FBXO6, FBXO44
B2: GLGPNLVGV (SEQ ID NO: 23) (peptide)
peptide: GLGPNLVGV
notes: synthetic peptide; source genes SLC25A36, SLC25A33

molecular target: HLA-A*02:01 (peptide-receptive MHC class I molecule, heavy chain with beta-2-microglobulin) (human); experiment: UV-ligand exchange, anti-b2m ELISA; peptide exchange yield grade (>10% = +; >20% = ++; >50 = +++; >75% = ++++)
Source text: Candidate peptides for T cell based therapies according to the present invention were further tested for their MHC binding capacity (affinity). The individual peptide-MHC complexes were produced by UV-ligand exchange, where a UV-sensitive peptide is cleaved upon UV-irradiation, and exchanged with the peptide of interest as analyzed. Only peptide candidates that can effectively bind and stabilize the peptide-receptive MHC molecules prevent dissociation of the MHC complexes. To determine the yield of the exchange reaction, an ELISA was performed based on the detection of the light chain (β2m) of stabilized MHC complexes. The assay was performed as generally described in Rodenko et al. (Rodenko et al., 2006).
96 well MAXISorp plates (NUNC) were coated over night with 2 ug/ml streptavidin in PBS at room temperature, washed 4× and blocked for 1 h at 37° C. in 2% BSA containing blocking buffer. Refolded HLA-A*02:01/MLA-001 monomers served as standards, covering the range of 15-500 ng/ml. Peptide-MHC monomers of the UV-exchange reaction were diluted 100 fold in blocking buffer. Samples were incubated for 1 h at 37° C., washed four times, incubated with 2 ug/ml HRP conjugated anti-β2m for 1 h at 37° C., washed again and detected with TMB solution that is stopped with […]. Absorption was measured at 450 nm. Candidate peptides that show a high exchange yield (preferably higher than 50%, most preferred higher than 75%) are generally preferred for a generation and production of antibodies or fragments thereof, and/or T cell receptors or fragments thereof, as they show sufficient avidity to the MHC molecules and prevent dissociation of the MHC complexes.

| peptide exchange yield | Binder |
| --- | --- |
| > 75% | AIAGRLLGV (synthetic peptide; source gene CLCN5) [AIAGRLLGV (SEQ ID NO: 34)] |
| 50 to 75% | KLWEESTAQV (synthetic peptide; source gene C1orf173) [KLWEESTAQV (SEQ ID NO: 17)] |
| 50 to 75% | TLSDVVVGL (synthetic peptide; source gene ELP4) [TLSDVVVGL (SEQ ID NO: 54)] |
| 50 to 75% | ALDGKIYEL (synthetic peptide; source gene ARHGAP5) [ALDGKIYEL (SEQ ID NO: 39)] |
| > 75% | SVMELLQGV (synthetic peptide; source gene TRIM5) [SVMELLQGV (SEQ ID NO: 8)] |
| 50 to 75% | GLIENTYQL (synthetic peptide; source gene RNF175) [GLIENTYQL (SEQ ID NO: 32)] |
| > 75% | GLLSVELRV (synthetic peptide; source gene DCHS2) [GLLSVELRV (SEQ ID NO: 15)] |
| 10 to 20% | IGIGPVLNI (synthetic peptide; source gene TMLHE) [IGIGPVLNI (SEQ ID NO: 29)] |
| > 75% | FLVDSLISA (synthetic peptide; source gene HOXD10) [FLVDSLISA (SEQ ID NO: 14)] |
| 50 to 75% | NMDDVIYYV (synthetic peptide; source gene RNF145) [NMDDVIYYV (SEQ ID NO: 46)] |
| 50 to 75% | YLETMNITL (synthetic peptide; source gene PGM2L1) [YLETMNITL (SEQ ID NO: 19)] |
| > 75% | ALDPIIHGL (synthetic peptide; source gene PTPRG) [ALDPIIHGL (SEQ ID NO: 11)] |
| 20 to 50% | VLLHVSVLL (synthetic peptide; source gene ZDHHC24) [VLLHVSVLL (SEQ ID NO: 45)] |
| > 75% | ALLELLHEL (synthetic peptide; source gene LEMD2) [ALLELLHEL (SEQ ID NO: 49)] |
| > 75% | TLSTVIATV (synthetic peptide; source gene ATN1) [TLSTVIATV (SEQ ID NO: 50)] |
| 50 to 75% | RLDIQGTGQLL (synthetic peptide; source gene PIGR) [RLDIQGTGQLL (SEQ ID NO: 4)] |
| 50 to 75% | SLLSDIIAL (synthetic peptide; source gene PIGQ) [SLLSDIIAL (SEQ ID NO: 36)] |
| > 75% | VLLDIFTGV (synthetic peptide; source gene LIG3) [VLLDIFTGV (SEQ ID NO: 2)] |
| 50 to 75% | ILAETQPEL (synthetic peptide; source gene STX18) [ILAETQPEL (SEQ ID NO: 48)] |
| 50 to 75% | TLLDRVAVI (synthetic peptide; source gene FRG1B) [TLLDRVAVI (SEQ ID NO: 30)] |
| > 75% | FLSGYYVTL (synthetic peptide; source gene TMEM101) [FLSGYYVTL (SEQ ID NO: 42)] |
| 50 to 75% | GLDEAIRKV (synthetic peptide; source gene GLYATL2) [GLDEAIRKV (SEQ ID NO: 28)] |
| 50 to 75% | TLLPTLYEI (synthetic peptide; source gene RNF180) [TLLPTLYEI (SEQ ID NO: 35)] |
| > 75% | KLLDNLHDL (synthetic peptide; source gene PGR) [KLLDNLHDL (SEQ ID NO: 1)] |
| > 75% | ALLGFVTDL (synthetic peptide; source gene ATP2B4) [ALLGFVTDL (SEQ ID NO: 20)] |
| 50 to 75% | GLDGATYTV (synthetic peptide; source gene SEMA4C) [GLDGATYTV (SEQ ID NO: 3)] |
| 50 to 75% | TVPPVFVSV (synthetic peptide; source gene KCNMA1) [TVPPVFVSV (SEQ ID NO: 51)] |

| peptide exchange yield | Binder |
| --- | --- |
| 50 to 75% | GLVEQLYDL (synthetic peptide; source gene NOC2L) [GLVEQLYDL (SEQ ID NO: 47)] |
| 50 to 75% | ALQNKVVAL (synthetic peptide; source gene NXNL2) [ALQNKVVAL (SEQ ID NO: 13)] |
| > 75% | SVLAGVVGV (synthetic peptide; source gene GUCY1A2) [SVLAGVVGV (SEQ ID NO: 26)] |
| 50 to 75% | VIANEIEKV (synthetic peptide; source gene APOL4) [VIANEIEKV (SEQ ID NO: 43)] |
| > 75% | AILDVVVNL (synthetic peptide; source gene RFX3) [AILDVVVNL (SEQ ID NO: 10)] |
| > 75% | B1 |
| 50 to 75% | VLVSSVLGV (synthetic peptide; source gene SIGIRR) [VLVSSVLGV (SEQ ID NO: 22)] |
| 50 to 75% | ALISEKLETL (synthetic peptide; source gene DNAJC10) [ALISEKLETL (SEQ ID NO: 52)] |
| 50 to 75% | VLLATVTEL (synthetic peptide; source gene SLC35E1) [VLLATVTEL (SEQ ID NO: 37)] |
| 50 to 75% | VLNPETTVV (synthetic peptide; source gene PAPSS1) [VLNPETTVV (SEQ ID NO: 27)] |
| > 75% | GLLGGVIMMV (synthetic peptide; source gene SLC39A7) [GLLGGVIMMV (SEQ ID NO: 40)] |
| 50 to 75% | ALLTAVTNV (synthetic peptide; source gene LEMD2) [ALLTAVTNV (SEQ ID NO: 31)] |
| 20 to 50% | SILSLLIKL (synthetic peptide; source gene UBR3) [SILSLLIKL (SEQ ID NO: 7)] |
| 50 to 75% | SLYPGTETM (synthetic peptide; source gene SVIL) [SLYPGTETM (SEQ ID NO: 9)] |
| > 75% | SLLSELVEA (synthetic peptide; source gene KLHDC5) [SLLSELVEA (SEQ ID NO: 6)] |
| 50 to 75% | KLNSSIQYV (synthetic peptide; source gene PKHD1L1) [KLNSSIQYV (SEQ ID NO: 16)] |
| 20 to 50% | SMTTNLDLKV (synthetic peptide; source gene TMEM202) [SMTTNLDLKV (SEQ ID NO: 33)] |
| > 75% | B2 |
| > 75% | SLFDEVRQI (synthetic peptide; source gene STX18) [SLFDEVRQI (SEQ ID NO: 5)] |
| 50 to 75% | RILDIDIPLSV (synthetic peptide; source gene TFCP2L1) [RILDIDIPLSV (SEQ ID NO: 38)] |
| > 75% | FLNGLEILL (synthetic peptide; source gene MDN1) [FLNGLEILL (SEQ ID NO: 44)] |
| > 75% | VMHDSSFSV (synthetic peptide; source gene ADNP2) [VMHDSSFSV (SEQ ID NO: 53)] |
| > 75% | YIDDIFSGV (synthetic peptide; source gene TEX9) [YIDDIFSGV (SEQ ID NO: 41)] |
| > 75% | ALAPSEGVQAA (synthetic peptide; source gene MSX1) [ALAPSEGVQAA (SEQ ID NO: 12)] |
| 50 to 75% | ILDAQTAFV (synthetic peptide; source gene ABCC1) [ILDAQTAFV (SEQ ID NO: 24)] |
| 50 to 75% | VLGPEGQLV (synthetic peptide; source gene GLYATL2) [VLGPEGQLV (SEQ ID NO: 21)] |
